Laboratory results: EP4592317A1 (ABlink Biotech Co., Ltd., dated 2025)
Several values for one entry are separate records, joined by “and”; a condition that tells them apart may be missing. Equal values may be shown once.

Columns and labels:
[1] = target: T1, Monkey 4-1BB extracellular region recombinant protein (his-tag) (monkey); experiment: ELISA, coated monkey 4-1BB-his 200 ng/well; antibody 0.12 µg/ml
T1 construct: extracellular domain; also called Monkey4-1BB, his-tag

[2] = target: T2, Human 4-1BB extracellular domain recombinant protein (his-tag) (human, UniProt Q07011 24-186); experiment: ELISA, coated human 4-1BB-his 200 ng/well; antibody 0.014 µg/ml
T2 construct: extracellular domain; also called Human4-1BB, his-tag; human 4-1BB extracellular region recombinant protein; not shown: his-tag

[3] = target: T2, Human 4-1BB extracellular domain …; experiment: ELISA, coated human 4-1BB-his 200 ng/well; antibody 0.041 µg/ml
[4] = target: T3, Mouse 4-1BB extracellular region recombinant protein (his-tag) (mouse, UniProt P20334 24-187); experiment: ELISA, coated mouse 4-1BB-his 200 ng/well; antibody 3.33 µg/ml
T3 construct: extracellular domain; also called Mouse4-1BB, his-tag; not shown: his-tag
T3 sequence (looked up): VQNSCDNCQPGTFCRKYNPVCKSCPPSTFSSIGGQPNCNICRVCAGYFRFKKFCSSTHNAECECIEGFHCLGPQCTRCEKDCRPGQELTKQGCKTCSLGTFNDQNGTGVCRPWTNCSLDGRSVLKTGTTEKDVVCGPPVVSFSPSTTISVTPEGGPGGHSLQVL

[5] = target: T1, Monkey 4-1BB extracellular region …; experiment: ELISA, coated monkey 4-1BB-his 200 ng/well; antibody 0 µg/ml (background well)
[6] = target: T2, Human 4-1BB extracellular domain …; experiment: ELISA, coated human 4-1BB-his 200 ng/well; antibody 0.12 µg/ml
[7] = target: T3, Mouse 4-1BB extracellular region …; experiment: ELISA, coated mouse 4-1BB-his 200 ng/well; antibody 0.041 µg/ml
[8] = target: T1, Monkey 4-1BB extracellular region …; experiment: ELISA, coated monkey 4-1BB-his 200 ng/well; antibody 0.041 µg/ml
[9] = target: T3, Mouse 4-1BB extracellular region …; experiment: ELISA, coated mouse 4-1BB-his 200 ng/well; antibody 1.11 µg/ml
[10] = target: T2, Human 4-1BB extracellular domain …; experiment: ELISA, coated human 4-1BB-his 200 ng/well; antibody 0 µg/ml (background well)
[11] = target: T3, Mouse 4-1BB extracellular region …; experiment: ELISA, coated mouse 4-1BB-his 200 ng/well; antibody 0.014 µg/ml
[12] = target: T2, Human 4-1BB extracellular domain …; experiment: SPR (Biacore 8K), VHH-hFc captured on Protein A chip, human 4-1BB-his as analyte, 25°C, 1:1 fit
[13] = target: T2, Human 4-1BB extracellular domain …; experiment: ELISA, coated human 4-1BB-his 200 ng/well; antibody 10.0 µg/ml
[14] = target: T1, Monkey 4-1BB extracellular region …; experiment: ELISA, coated monkey 4-1BB-his 200 ng/well
[15] = target: T3, Mouse 4-1BB extracellular region …; experiment: ELISA, coated mouse 4-1BB his-tag 200 ng/well
[16] = target: T2, Human 4-1BB extracellular domain …; experiment: ELISA, coated human 4-1BB-his 200 ng/well; antibody 3.33 µg/ml
[17] = target: T2, Human 4-1BB extracellular domain …; experiment: ELISA, coated human 4-1BB-his 200 ng/well; antibody 0.37 µg/ml
[18] = target: T1, Monkey 4-1BB extracellular region …; experiment: ELISA, coated monkey 4-1BB-his 200 ng/well; antibody 0.014 µg/ml
[19] = target: T1, Monkey 4-1BB extracellular region …; experiment: ELISA, coated monkey 4-1BB-his 200 ng/well; antibody 10.0 µg/ml
[20] = target: T3, Mouse 4-1BB extracellular region …; experiment: ELISA, coated mouse 4-1BB-his 200 ng/well; antibody 0 µg/ml (background well)
[21] = target: T2, Human 4-1BB extracellular domain …; experiment: ELISA, coated human 4-1BB-his 200 ng/well
[22] = target: T1, Monkey 4-1BB extracellular region …; experiment: ELISA, coated monkey 4-1BB-his 200 ng/well; antibody 1.11 µg/ml
[23] = target: T2, Human 4-1BB extracellular domain …; experiment: ELISA, coated human 4-1BB-his 200 ng/well; antibody 1.11 µg/ml
[24] = target: T1, Monkey 4-1BB extracellular region …; experiment: ELISA, coated monkey 4-1BB-his 200 ng/well; antibody 3.33 µg/ml
[25] = target: T3, Mouse 4-1BB extracellular region …; experiment: ELISA, coated mouse 4-1BB-his 200 ng/well; antibody 0.37 µg/ml
[26] = target: T3, Mouse 4-1BB extracellular region …; experiment: ELISA, coated mouse 4-1BB-his 200 ng/well; antibody 0.12 µg/ml
[27] = target: T1, Monkey 4-1BB extracellular region …; experiment: ELISA, coated monkey 4-1BB-his 200 ng/well; antibody 0.37 µg/ml
[28] = target: T3, Mouse 4-1BB extracellular region …; experiment: ELISA, coated mouse 4-1BB-his 200 ng/well; antibody 10.0 µg/ml

B1: 137-18 VHH-hFc recombinant antibody (Fc fusion)
chain: QVQLVESGGGLVHPGGSLRLSCAASGFIFSLYTMSWVRQAPGKGLEWVSDINSGGDSTDYADSVKGRFTISRDNAKSTLYLQMNSLKPEDTAVYYCAKDYPLGQREDYWGQGTQVTVSS
notes: VHH fragment inserted into vector pFclG with human IgG1 Fc tag, expressed in HEK293F; also called CD137-18; not shown: human IgG1 Fc tag of the eukaryotic expression vector pFclG
[1]
  absorbance at 450 nm: 0.433
[2]
  absorbance at 450 nm: 0.399
[3]
  absorbance at 450 nm: 0.451
[4]
  absorbance at 450 nm: 0.219
[5]
  absorbance at 450 nm: 0.051
[6]
  absorbance at 450 nm: 0.562
[7]
  absorbance at 450 nm: 0.182
[8]
  absorbance at 450 nm: 0.392
[9]
  absorbance at 450 nm: 0.214
[10]
  absorbance at 450 nm: 0.119
[11]
  absorbance at 450 nm: 0.188
[12]
  Kd: 3.36 nM
  koff: 0.000792 s⁻¹
  kon: 236000 M⁻¹ s⁻¹
[13]
  absorbance at 450 nm: 2.93
[14]
  EC50: 4.36 µg/mL and 54.5 nM
[15]
  binding result: no binding (tested: 0.014-10 µg/mL)
[16]
  absorbance at 450 nm: 1.73
[17]
  absorbance at 450 nm: 0.732
[18]
  absorbance at 450 nm: 0.325
[19]
  absorbance at 450 nm: 3.3
[20]
  absorbance at 450 nm: 0.203
[21]
  EC50: 4.06 µg/mL and 50.8 nM
[22]
  absorbance at 450 nm: 1.19
[23]
  absorbance at 450 nm: 1.31
[24]
  absorbance at 450 nm: 2.05
[25]
  absorbance at 450 nm: 0.199
[26]
  absorbance at 450 nm: 0.192
[27]
  absorbance at 450 nm: 0.707
[28]
  absorbance at 450 nm: 0.288
